The values below come from PMC10377175.

Data set [1] addresses T1, ENOX2 (tNOX) (Homo sapiens) (UniProt Q16206).
T1 sequence: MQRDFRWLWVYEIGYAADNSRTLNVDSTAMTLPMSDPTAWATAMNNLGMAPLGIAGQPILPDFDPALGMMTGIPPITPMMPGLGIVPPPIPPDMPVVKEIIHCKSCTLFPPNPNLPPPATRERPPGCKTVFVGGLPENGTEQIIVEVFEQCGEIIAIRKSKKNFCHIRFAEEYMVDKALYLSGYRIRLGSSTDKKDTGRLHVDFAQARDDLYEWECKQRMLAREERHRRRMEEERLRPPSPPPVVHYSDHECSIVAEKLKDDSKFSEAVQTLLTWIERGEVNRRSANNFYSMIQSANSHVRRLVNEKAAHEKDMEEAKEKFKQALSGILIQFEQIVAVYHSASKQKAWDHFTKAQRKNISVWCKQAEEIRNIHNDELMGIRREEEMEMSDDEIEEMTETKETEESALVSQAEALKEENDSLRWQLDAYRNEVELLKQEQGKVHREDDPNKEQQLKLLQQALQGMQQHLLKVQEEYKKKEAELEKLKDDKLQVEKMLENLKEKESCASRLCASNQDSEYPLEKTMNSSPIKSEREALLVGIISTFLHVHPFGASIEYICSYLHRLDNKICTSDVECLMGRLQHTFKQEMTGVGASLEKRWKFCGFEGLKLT
In words: EMSA. Conditions: apparent Kd; 1 nM aptamer, 0-100 nM ENOX2; 0.5 mM MgCl2; EMSA: 0.7% agarose, 0.5x TBE (65 mM Tris, 22.5 mM boric acid, 1.25 mM EDTA, 0.5 mM MgCl2, 0.005% Tween-20, pH 8.3); E-DNA: PBS pH 7.4 (137 mM NaCl, 10 mM …). On the technique in general: Mobility shift assays separate free from complexed probe on a gel.

Data set [2] deals with T1, ENOX2 (tNOX) (Homo sapiens). In words: electrochemical (E-DNA, square wave voltammetry). Conditions: apparent Kd; 0.1-200 nM ENOX2; PBS with 1 mM MgCl2; internal methylene blue on thymine T21 (printed after ...CATCTTT); 5' disulfide linker reduced to thiol; EMSA: 0.7% agarose, 0.5x TBE (65 mM Tris, 22.5 mM boric acid, 1.25 mM EDTA, 0.5 mM MgCl2, 0.005% Tween-20, pH 8.3); E-DNA: PBS pH 7.4 (137 mM NaCl, 10 mM …).

Consider “TTTTTTAGATCCCTGTTCATCTGTCTCGAGTGTTCTTTAATGATCTTTTT [ENOX2-binding aptamer, 5' fluorescein]”, for which, in data set [1], the Kd came out at 0.4 nM.
For “TAAAGATCCCTGTTCATCTTTTCTCGAGTGTTCTTTAGAACAATGAATCTTT [ENOX2 E-DNA biosensor aptamer]”, the Kd in data set [2] was determined as 6 nM.
